According to patent publication US9255270B2, “Methods used in sensitizing invasive glioblastoma to therapeutic treatment” (Translational Genomics Research Institute, priority 2009, dated 2016):

What was measured:
[1] = test system: Akt2; experiment: Immunoprecipitation with isoform-specific antibody, immunoblot for phospho Akt-473; format: cell-based, Human; conditions: T98G cells; TWEAK 10 min
Protocol: (§1) Immunoblotting and protein determination experiments were performed as described previously (See Reference 11). In some experiments, TWEAK (100 ng/ml) was preincubated with 2.5 μg/ml soluble Fn14-Fc decoy receptor or control Fc protein at 37° C. for 15 min before adding it to cells (See Reference 26). Also, in some cases, cells were pretreated with the PI3K inhibitor LY294002 (10 μM) for 10 min prior to TWEAK addition. For immunoprecipitation, cells were lysed on ice for 10 min in a buffer containing 10 mM Tris-HCl, pH 7.4, 0.5% Nonidet P-40, 150 mM NaCl, 1 mM phenylmethylsulfonyl fluoride, 1 mM EDTA, 2 mM sodium vanadate, 10 μg/ml aprotinin, and 10 μg/ml leupeptin (Sigma). […] Samples were then resuspended in 2×SDS sample buffer and boiled in the presence of 2-mercaptoethanol (Sigma), separated by SDS-PAGE, transferred to nitrocellulose for 1 h at 4° C., and proteins were detected as described previously (See Reference 27). […]
(§2) The protein expression of Akt1 and Akt2 across five different glioma cell lines was assessed. […]
(§3) Akt1 and Akt2 are expressed in glioma cell lines and are phosphorylated in TWEAK stimulated cells. Referring now to FIG. 10: T98G, SNB19, SF767, U87, and U118 cell lysates were analyzed for endogenous levels of Akt1 and Akt2 by Western blotting. To monitor gel loading, α-tubulin protein levels were also analyzed. […]

[2] = test system: Akt1; experiment: as above; format: cell-based, Human; conditions: T98G cells; TWEAK 10 min
Protocol: as §1, §2, §3

[3] = test system: T98G and SF767 glioma cells; experiment: Apoptotic assay (nuclear morphology of DAPI stained cells); format: cell-based, Human
Protocol: (§4) Human astrocytoma cell lines T98G, U87, U118, SNB19 (American Type Culture Collection) and SF767 (University of California at San Francisco) were maintained in Dulbecco's modified Eagle's medium (DMEM)+10% heat inactivated fetal bovine serum (FBS) in a 37° C., 5% CO2 atmosphere. In all assays treated with TWEAK, cells were cultured in reduced serum (0.5% FBS) for 16 h prior to stimulation with recombinant TWEAK at 100 ng/ml in DMEM+0.1% BSA for the indicated times.
Apoptotic cells were evaluated by nuclear morphology of DAPI stained cells as described previously (See Reference 11). Briefly, cells with condensed, fragmented chromatin were manually scored as apoptotic cells. At least five fields (total of 1000 cells) were evaluated, and data reported as apoptotic cells/total cells×100. Verification of apoptotic cells was conducted by co-immunofluorescence staining using a monoclonal antibody against activated cleaved caspase 3. At least 1000 cells per treatment were evaluated for condensed chromatin and activated caspase 3 (See Reference 11).
TWEAK stimulation of glioma cell survival depends on Akt2 function. SiRNA specific for Akt1 (FIG. 12) and Akt2 (FIG. 13) suppress expression of Akt1 and Ak2 protein in both. T98G and SF767 glioma cells. […] After 72 hours, protein lysates were collected and analyzed by Western blotting for Akt1, Akt2 and α-tubulin. […] Cells with condensed, fragmented chromatin were manually scored as apoptotic cells. At least 10 fields (total of 1000 cells) were evaluated and data reported as apoptotic cells/total cells×100. […]
(§5) In FIGS. 18 and 19, TWEAK-induced BAD phosphorylation on serine 136 is dependent upon Akt2 function. […] Cellular lysates were collected and analyzed for phosphorylated BAD Ser-136 and total BAD by ELISA. […] After 72 hours protein lysates were collected and analyzed by Western blotting for BAD and α-tubulin. […] Cells with condensed, fragmented chromatin were manually scored as apoptotic cells. At least 10 fields (total of 1000 cells) were evaluated and data reported as apoptotic cells/total cells×100. […]

[4] = test system: BAD (Ser 136) phosphorylation; experiment: PhosphoBAD (Ser 136) sandwich ELISA; parameters: species or system Human; conditions: cell-based ELISA; glioma cells
Protocol: Phosphorylation levels of BAD (Ser 136) were determined using a cell-based ELISA. Glioma cells were transfected with siRNA oligonucleotides against AKT1, AKT2, or non-mammalian GL2 luciferase control siRNA and incubated overnight. The cells were cultured overnight in DMEM with 0.5% FBS prior to TWEAK or control PBS addition in DMEM with 0.1% BSA for 15 min. Total cellular lysates were collected according to manufacturer's instructions utilizing the PathScan Sandwich ELISA kit (Cell Signaling). Each sample (100 μg total protein) was diluted 1:1 in sample buffer for a final volume of 200 μL prior to addition to the designated microstrip wells previously coated by the manufacturer with a BAD rabbit monoclonal capture antibody. The microstrips were then sealed and incubated overnight at 4° C. on a plate shaker. […] Stop solution was omitted and absorbance read at 600 nm (See Reference 29).
as §5

[5] = test system: Akt-Ser473 phosphorylation; experiment: Western blot of Akt-Ser473 phosphorylation in TWEAK-treated glioma cells; format: cell-based, Human
Protocol: as §4, §1
Referring now to FIG. 1, T98G and SF767 glioma cells were treated with TWEAK and then harvested at the indicated times. Protein lysates were analyzed by Western blotting using antibodies to Akt Ser-473, total Akt, and α-tubulin. […] Total cell lysates were collected after 10 min of TWEAK treatment and analyzed for phosphorylated Akt-473, total Akt, and α-tubulin. […] Cells were treated with TWEAK for 10 minutes and protein lysates were analyzed for phosphorylated Akt-473, total Akt, Rac1 and α-tubulin. […]

B1: TWEAK: recombinant TWEAK, TNF superfamily ligand of the Fn14 receptor, used at 100 ng/ml (protein)
chain: SAPKGRKTRARRAIAAHYEVHPRPGQDGAQAGVDGTVSGWEEARINSSSPLRYNRQIGEFIVTRAGLYYLYCQVHFDEGKAVYLKLDLLVDGVLALRCLEEFSATAASSLGPQLRLCQVSGLLALRPGSSLRIRTLPWAHLKAAPFLTYFGLFQVH
[1]
  induction of phosphorylation of Akt2 following TWEAK treatment: two-fold induction
[2]
  induction of phosphorylation of Akt1 following TWEAK treatment: two-fold induction
[3]; BAD siRNA transfected glioma cells
  effect of TWEAK pretreatment on apoptosis by cytotoxic or chemotherapeutic agents in cells with BAD expression suppressed: still protected glioma cells from apoptosis
[3]; TWEAK 100 ng/ml 2 hours before TMZ 200 μM
  effect of TWEAK pretreatment on TMZ induced cell death: suppressed TMZ induced cell death
[3]; TWEAK 100 ng/ml 2 hours before TRAIL or camptothecin, control siRNA cells
  effect of TWEAK pretreatment on cytotoxic therapy-induced apoptosis: abrogated cytotoxic therapy-induced apoptosis
[4]
  amount of phosphorylated BAD-Ser136 upon TWEAK stimulation: increased approximately two-fold
  amount of total BAD upon TWEAK stimulation: did not change significantly
[5]; TWEAK 100 ng/ml, T98G and SF767 glioma cells
  Akt-Ser473 phosphorylation after TWEAK treatment (immunoblot of whole cellular lysates): induction of Akt-Ser473 phosphorylation
[5]; TWEAK treatment, T98G and SF767
  duration of TWEAK treatment after which Akt-Ser473 phosphorylation diminished: more than 1 hour
[5]; TWEAK treatment, both T98G and SF767 cell lines
  time after which phosphorylation of Akt-Ser473 was detected: 5 min
